{
  "source": "the supplement of paper PMC9112550",
  "about": "“Optimization of the antimicrobial peptide Bac7 by deep mutational scanning” (BMC Biology, 2022);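 note: peptides expressed intracellularly from a pBAD plasmid library in pooled LB shake-flask culture, induced with 0.3% L-arabinose, DNA abundance read by NGS, three biological replicates, DESeq2 with apeglm shrinkage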",
  "data": [
    {"system": "Escherichia coli TOP10", "experiment": "shrunken log2 fold change of peptide-encoding DNA abundance (4.5 h post-induction vs induction); higher = less antimicrobial activity (less host growth inhibition)", "conditions": "time post-induction: 4.5 h; library: site-saturation at positions 5, 18, 19, 20", "values": [
      {"sequence": "RRIRIRPPRLPRPRPRPPGTPRP", "shrunken log2 fold change": 0.029},
      {"sequence": "RRIRQRPPRLPRPRPRPYFQPRP", "shrunken log2 fold change": -0.428},
      {"sequence": "RRIRFRPPRLPRPRPRPAGTPRP", "shrunken log2 fold change": -0.0142},
      {"sequence": "RRIRCRPPRLPRPRPRPRCVPRP", "shrunken log2 fold change": -0.0609},
      {"sequence": "RRIRERPPRLPRPRPRPRKFPRP", "shrunken log2 fold change": 0.173},
      {"sequence": "RRIRPRPPRLPRPRPRPCEKPRP", "shrunken log2 fold change": 0.0377},
      {"sequence": "RRIRDRPPRLPRPRPRPVNQPRP", "shrunken log2 fold change": 0.0383},
      {"sequence": "RRIRHRPPRLPRPRPRPAFPPRP", "shrunken log2 fold change": 0.46},
      {"sequence": "RRIRNRPPRLPRPRPRPWLPPRP", "shrunken log2 fold change": -0.0828},
      {"sequence": "RRIRERPPRLPRPRPRPNVYPRP", "shrunken log2 fold change": -0.439},
      {"sequence": "RRIRTRPPRLPRPRPRPQASPRP", "shrunken log2 fold change": 2.4},
      {"sequence": "RRIRGRPPRLPRPRPRPHFHPRP", "shrunken log2 fold change": 0.603},
      {"sequence": "RRIRCRPPRLPRPRPRPYQSPRP", "shrunken log2 fold change": -0.307},
      {"sequence": "RRIRIRPPRLPRPRPRPLRKPRP", "shrunken log2 fold change": 0.00781},
      {"sequence": "RRIRSRPPRLPRPRPRPVEIPRP", "shrunken log2 fold change": -0.0626},
      {"sequence": "RRIRVRPPRLPRPRPRPVYAPRP", "shrunken log2 fold change": -0.00846},
      {"sequence": "RRIRGRPPRLPRPRPRPVGDPRP", "shrunken log2 fold change": 0.802},
      {"sequence": "RRIRTRPPRLPRPRPRPTNYPRP", "shrunken log2 fold change": -0.857},
      {"sequence": "RRIRNRPPRLPRPRPRPLGMPRP", "shrunken log2 fold change": -0.109},
      {"sequence": "RRIRRRPPRLPRPRPRPQNVPRP", "shrunken log2 fold change": 0.0718},
      {"sequence": "RRIRTRPPRLPRPRPRPIGDPRP", "shrunken log2 fold change": -0.293},
      {"sequence": "RRIRRRPPRLPRPRPRPMSDPRP", "shrunken log2 fold change": -0.00309},
      {"sequence": "RRIRIRPPRLPRPRPRPYESPRP", "shrunken log2 fold change": -0.0135},
      {"sequence": "RRIRGRPPRLPRPRPRPYEGPRP", "shrunken log2 fold change": -0.199},
      {"sequence": "RRIRERPPRLPRPRPRPTWKPRP", "shrunken log2 fold change": -0.012},
      {"sequence": "RRIRERPPRLPRPRPRPTLFPRP", "shrunken log2 fold change": 0.0897},
      {"sequence": "RRIRIRPPRLPRPRPRPDEEPRP", "shrunken log2 fold change": -0.00176},
      {"sequence": "RRIRPRPPRLPRPRPRPNFQPRP", "shrunken log2 fold change": -0.00527},
      {"sequence": "RRIRWRPPRLPRPRPRPPAKPRP", "shrunken log2 fold change": 0.56},
      {"sequence": "RRIRKRPPRLPRPRPRPAIGPRP", "shrunken log2 fold change": 1.04},
      {"sequence": "RRIRVRPPRLPRPRPRPPPQPRP", "shrunken log2 fold change": 0.856},
      {"sequence": "RRIRTRPPRLPRPRPRPGWSPRP", "shrunken log2 fold change": 0.354},
      {"sequence": "RRIRGRPPRLPRPRPRPCNLPRP", "shrunken log2 fold change": -0.0958},
      {"sequence": "RRIRGRPPRLPRPRPRPRTYPRP", "shrunken log2 fold change": 0.0193},
      {"sequence": "RRIRGRPPRLPRPRPRPAGDPRP", "shrunken log2 fold change": 1.11},
      {"sequence": "RRIRMRPPRLPRPRPRPCMFPRP", "shrunken log2 fold change": -0.038},
      {"sequence": "RRIRTRPPRLPRPRPRPLYQPRP", "shrunken log2 fold change": -0.375},
      {"sequence": "RRIRYRPPRLPRPRPRPNLQPRP", "shrunken log2 fold change": -0.614},
      {"sequence": "RRIRERPPRLPRPRPRPSYDPRP", "shrunken log2 fold change": -0.301},
      {"sequence": "RRIRGRPPRLPRPRPRPITKPRP", "shrunken log2 fold change": -0.0602},
      {"sequence": "RRIRTRPPRLPRPRPRPDMIPRP", "shrunken log2 fold change": 0.00205},
      {"sequence": "RRIRQRPPRLPRPRPRPLAWPRP", "shrunken log2 fold change": 0.15},
      {"sequence": "RRIRQRPPRLPRPRPRPHFYPRP", "shrunken log2 fold change": -0.229},
      {"sequence": "RRIRSRPPRLPRPRPRPSWCPRP", "shrunken log2 fold change": -0.132},
      {"sequence": "RRIRHRPPRLPRPRPRPKVWPRP", "shrunken log2 fold change": 0.331},
      {"sequence": "RRIRPRPPRLPRPRPRPEFWPRP", "shrunken log2 fold change": 0.583},
      {"sequence": "RRIRVRPPRLPRPRPRPRNLPRP", "shrunken log2 fold change": 0.107},
      {"sequence": "RRIRARPPRLPRPRPRPRKCPRP", "shrunken log2 fold change": 0.154},
      {"sequence": "RRIRARPPRLPRPRPRPRPYPRP", "shrunken log2 fold change": 0.375},
      {"sequence": "RRIRDRPPRLPRPRPRPISQPRP", "shrunken log2 fold change": 0.12},
      {"sequence": "RRIRFRPPRLPRPRPRPNVCPRP", "shrunken log2 fold change": -0.0089},
      {"sequence": "RRIRYRPPRLPRPRPRPMTCPRP", "shrunken log2 fold change": -0.122},
      {"sequence": "RRIRARPPRLPRPRPRPEFNPRP", "shrunken log2 fold change": 1.05},
      {"sequence": "RRIRTRPPRLPRPRPRPDQMPRP", "shrunken log2 fold change": 0.0643},
      {"sequence": "RRIRIRPPRLPRPRPRPGWCPRP", "shrunken log2 fold change": -0.082},
      {"sequence": "RRIRERPPRLPRPRPRPDIGPRP", "shrunken log2 fold change": -0.0541},
      {"sequence": "RRIRRRPPRLPRPRPRPYWEPRP", "shrunken log2 fold change": 0.0331},
      {"sequence": "RRIRFRPPRLPRPRPRPRFKPRP", "shrunken log2 fold change": -0.281},
      {"sequence": "RRIRTRPPRLPRPRPRPNVFPRP", "shrunken log2 fold change": 0.0305},
      {"sequence": "RRIRERPPRLPRPRPRPECAPRP", "shrunken log2 fold change": 0.586},
      {"sequence": "RRIRFRPPRLPRPRPRPHYHPRP", "shrunken log2 fold change": -0.834},
      {"sequence": "RRIRVRPPRLPRPRPRPMRVPRP", "shrunken log2 fold change": 0.0609},
      {"sequence": "RRIRDRPPRLPRPRPRPRFKPRP", "shrunken log2 fold change": -0.0405},
      {"sequence": "RRIRYRPPRLPRPRPRPDCQPRP", "shrunken log2 fold change": -0.0127},
      {"sequence": "RRIRIRPPRLPRPRPRPDPTPRP", "shrunken log2 fold change": -0.0575},
      {"sequence": "RRIRLRPPRLPRPRPRPQFPPRP", "shrunken log2 fold change": 0.172},
      {"sequence": "RRIRWRPPRLPRPRPRPNCNPRP", "shrunken log2 fold change": -0.101},
      {"sequence": "RRIRIRPPRLPRPRPRPHVTPRP", "shrunken log2 fold change": -0.132},
      {"sequence": "RRIRARPPRLPRPRPRPPETPRP", "shrunken log2 fold change": 0.55},
      {"sequence": "RRIRMRPPRLPRPRPRPFLMPRP", "shrunken log2 fold change": -0.0208},
      {"sequence": "RRIRYRPPRLPRPRPRPCFIPRP", "shrunken log2 fold change": -0.321},
      {"sequence": "RRIRLRPPRLPRPRPRPWLDPRP", "shrunken log2 fold change": -0.233},
      {"sequence": "RRIRTRPPRLPRPRPRPDEQPRP", "shrunken log2 fold change": 0.0127},
      {"sequence": "RRIRWRPPRLPRPRPRPTGDPRP", "shrunken log2 fold change": 0.241},
      {"sequence": "RRIRIRPPRLPRPRPRPMPVPRP", "shrunken log2 fold change": -0.244}
    ]}
  ]
}
